In US20140322233A1 (Takeda / Millennium, published 2014):

Assays:
[1] = target: T1, human guanylyl cyclase C (GCC), full length (human, UniProt P25092 24-1073); test: FACS, HT-29#2 cells (full length GCC transfected)
T1 construct: Full length GCC on transfected HT-29 (clones #2, #5, #18) and CT26 (#2.5, #32) cells and endogenous GCC on T84 cells; also called hGCC; STAR

TOK107-hIg [2] = target: T2, TOK107-hIg (human); test: ELISA on coated TOK107-hIg
T2 construct: Expressed in HEK293 cells; Fc mutated at the CH1 cysteine and at lysine 235 and glycine 237 to alanine; also called hGCC-ECD/hIgG1 Fc; TOK107-hIgG

[3] = target: T3, human GCC, full length with myc tag (293-GCC#2 cells) (human, UniProt P25092 24-1073); test: cell-based or functional assay
TOK107-hIg [4] = target: T2, TOK107-hIg; test: ELISA against TOK107-hIg
[5] = target: T1, human guanylyl cyclase C (GCC), full …; test: FACS with GCC-expressing cells (cell line not given)
[6] = target: T1, human guanylyl cyclase C (GCC), full …; test: FACS with GCC-expressing cells (cell line not given); FACS EC50 on GCC-expressing cells
[7] = target: T1, human guanylyl cyclase C (GCC), full …; test: cell-based or functional assay
[8] = target: T3, human GCC, full length with myc tag …; test: indirect immunofluorescence flow cytometry, 293 GCC #2 cells;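 note: cells exposed to the test antibodies for 1 h on ice before flow cytometric readout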

T2 sequence (chain, as listed by the source limits assumed): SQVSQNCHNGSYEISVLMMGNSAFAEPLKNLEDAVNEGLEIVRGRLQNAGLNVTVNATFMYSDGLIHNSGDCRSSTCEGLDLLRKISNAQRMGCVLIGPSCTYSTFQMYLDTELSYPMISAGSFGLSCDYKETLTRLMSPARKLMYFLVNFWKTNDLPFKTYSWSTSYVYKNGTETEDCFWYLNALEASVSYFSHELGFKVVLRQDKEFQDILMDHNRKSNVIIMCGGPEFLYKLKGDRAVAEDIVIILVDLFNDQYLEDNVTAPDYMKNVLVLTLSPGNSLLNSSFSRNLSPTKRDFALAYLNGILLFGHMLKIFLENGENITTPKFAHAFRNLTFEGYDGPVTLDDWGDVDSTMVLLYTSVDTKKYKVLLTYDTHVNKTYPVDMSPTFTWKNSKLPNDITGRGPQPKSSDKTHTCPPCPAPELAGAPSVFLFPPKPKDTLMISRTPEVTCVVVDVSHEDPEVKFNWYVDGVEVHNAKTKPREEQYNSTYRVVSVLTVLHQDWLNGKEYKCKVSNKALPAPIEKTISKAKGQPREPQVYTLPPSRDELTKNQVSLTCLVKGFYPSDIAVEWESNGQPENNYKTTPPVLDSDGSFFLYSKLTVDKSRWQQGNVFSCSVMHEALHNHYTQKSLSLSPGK
T3 sequence (P25092 24-1073): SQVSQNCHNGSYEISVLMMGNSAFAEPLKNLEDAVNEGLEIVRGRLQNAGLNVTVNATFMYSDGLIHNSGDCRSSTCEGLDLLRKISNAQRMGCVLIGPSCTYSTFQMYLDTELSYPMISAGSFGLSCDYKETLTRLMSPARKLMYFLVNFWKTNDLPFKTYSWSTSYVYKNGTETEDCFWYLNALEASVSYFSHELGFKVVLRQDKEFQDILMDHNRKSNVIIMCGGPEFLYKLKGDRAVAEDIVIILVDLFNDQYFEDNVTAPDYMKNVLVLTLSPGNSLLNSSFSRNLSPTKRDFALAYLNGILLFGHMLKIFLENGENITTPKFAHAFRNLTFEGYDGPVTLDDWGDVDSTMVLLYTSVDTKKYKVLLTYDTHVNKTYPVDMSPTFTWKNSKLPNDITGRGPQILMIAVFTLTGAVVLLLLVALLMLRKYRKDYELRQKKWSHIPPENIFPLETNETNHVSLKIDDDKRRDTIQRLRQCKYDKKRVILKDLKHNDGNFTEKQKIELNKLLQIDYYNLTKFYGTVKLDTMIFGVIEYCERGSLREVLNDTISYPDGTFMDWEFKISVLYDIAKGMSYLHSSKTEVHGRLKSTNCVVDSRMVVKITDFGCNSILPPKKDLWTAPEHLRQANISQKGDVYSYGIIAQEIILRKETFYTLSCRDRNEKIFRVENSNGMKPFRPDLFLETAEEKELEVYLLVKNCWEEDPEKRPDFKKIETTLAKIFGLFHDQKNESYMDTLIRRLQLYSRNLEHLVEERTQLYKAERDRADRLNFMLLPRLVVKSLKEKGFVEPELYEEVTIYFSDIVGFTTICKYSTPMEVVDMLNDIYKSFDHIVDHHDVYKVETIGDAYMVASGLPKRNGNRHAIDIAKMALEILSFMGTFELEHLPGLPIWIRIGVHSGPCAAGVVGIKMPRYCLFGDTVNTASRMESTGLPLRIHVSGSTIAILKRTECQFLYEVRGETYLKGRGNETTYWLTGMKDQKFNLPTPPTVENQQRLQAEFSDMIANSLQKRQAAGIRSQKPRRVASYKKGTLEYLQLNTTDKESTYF
T1 sequence (P25092 24-1073 limits assumed): as the sequence (P25092 24-1073) above

B1: mAb 8F1 (antibody, IgG1, V domains shown)
VH: QVQLQQPGAELVKPGASVQMSCKASGYIFTGYWMYWVKQRPGQGLEWIGRIHPSDSNTNYNQKFKGKATLTVDKSSSTAYMQLSSLTSEDSAVYYCTHALAYWGQGTLVTVS
VL: DVVLTQTPLTLSITIGQPASISCKSSQSLLYSNGKTYLSWLLQRPGQSPKRLIYLVSQLDSGVPDRFTGSGSGTDFTLKISRVEAEDLGVYYCVQGTHLFTFGSGTKLEIK
binding result [1]: binds | binding result (TOK107-hIg [2]): binds

B2: mAb Abx-106 (antibody, IgG1, V domains shown)
VH: QVQLQESGPGLVKPSETLSLTCTVSGASISHYYWSWIRQPAGKGLEWIGRIYISGRTSYNPSLKSRVTVSVDTSKNQFSLKLSSVTAADTAVYYCARDRLTGYFDYWGQGTLVTVSS
VL: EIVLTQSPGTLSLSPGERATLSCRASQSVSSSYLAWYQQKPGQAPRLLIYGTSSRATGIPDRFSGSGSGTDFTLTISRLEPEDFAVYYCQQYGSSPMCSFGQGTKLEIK
LD50, indirect cytotoxicity with DM1-conjugated mouse anti-human IgG, 293-GCC#2 cells, WST after 4 days [3]: 166 pM | binding result (TOK107-hIg [2]): binds

B3: mAb Abx-012 (antibody, IgG1, V domains shown)
VH: QVQLQESGPGLVKPSETLSLTCTVSGASISHYYWSWIRQPAGKGLEWIGRIYISGRTSYNPSLKSRVTVSVDTSKNQFSLKLSSVTAADTAVYYCARDRLTGYFDYWGQGTLVTVSS
VL: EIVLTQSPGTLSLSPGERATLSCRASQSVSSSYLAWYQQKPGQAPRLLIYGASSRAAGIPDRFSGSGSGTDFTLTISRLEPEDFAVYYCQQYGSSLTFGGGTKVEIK
notes: also called Abx-12
LD50, indirect cytotoxicity with DM1-conjugated mouse anti-human IgG, 293-GCC#2 cells, WST after 4 days [3]: 279 pM | EC50 (TOK107-hIg [4]): 0.555 nM

B4: mAb Abx-338 (antibody, IgG1, V domains shown)
VH: QVQLQESGPGLVKPSETLSLTCTVSGGSIRSYYWSWIRQPAGKGLEWIGRIYISGRTTFNPSLKSRVTISVDTSKNQFSLKLSSVTAADTAVYFCARDRYYGYLDYWGQGTLVTVSS
VL: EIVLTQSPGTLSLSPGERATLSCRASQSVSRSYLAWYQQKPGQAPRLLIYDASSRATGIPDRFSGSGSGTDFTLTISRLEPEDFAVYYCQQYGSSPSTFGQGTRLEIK
EC50 [5]: 90 nM | LD50, indirect cytotoxicity with DM1-conjugated mouse anti-human IgG, 293-GCC#2 cells, WST after 4 days [3]: 267 pM | EC50 (TOK107-hIg [4]): 0.0049 nM

B5: mAb 3G1 (antibody, IgG1, V domains shown)
VH: QVQLKESGPGLVAPSQSLSITCTVSGFSLSRNAISWVRQPPGKGLEWLGVIWTGGGTNYNSALKSRLSIRKENSKSQVFLKMNSLQTEDTARYFCARSGYDGFDYWGQGTLVTVSA
VL: QIVLTQSPAIMSASPGEKVTMTCSASSSVNYMHWYQQKSGTSPKRWIYDTSKLASGVPARFSGSGSGTSYSLTITSMEAEDAATYYCQQWSGNPYTFGGGTKLEIK
EC50 [6]: 0.58 nM | EC50 (TOK107-hIg [4]): 22.8 nM

B6: mAb 6H8 (antibody, IgG2, V domains shown)
VH: QVQLVESGGGVVQPGRSLRLSCAASGFTFSSYGMHWVRQAPGKGLEWVAAIWYDGSNKYYADSVKGRFTISRDNSKNTLYLQMNSLRAEDTAVYYCARGRSSSYFDYWGQGTLVTVSS
VL: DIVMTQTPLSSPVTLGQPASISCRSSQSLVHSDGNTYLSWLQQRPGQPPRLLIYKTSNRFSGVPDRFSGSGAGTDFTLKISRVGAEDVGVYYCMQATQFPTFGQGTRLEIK
LD50, indirect cytotoxicity with DM1-conjugated mouse anti-human IgG, 293-GCC#2 cells, WST after 4 days [3]: > 4820 pM | binding result (TOK107-hIg [2]): binds

B7: mAb 10C10 (antibody, IgG2, V domains shown)
VH: QVQLVESGGGVVQPGRSLRLSCAASGFTFSSYGMHWVRQAPGKGLEWVAAIWYDGSNKYYADSVKGRFTISRDNSKNTLYLQMNSLRAEDTAVYYCARGRSSSYFDYWGQGTLVTVSS
VL: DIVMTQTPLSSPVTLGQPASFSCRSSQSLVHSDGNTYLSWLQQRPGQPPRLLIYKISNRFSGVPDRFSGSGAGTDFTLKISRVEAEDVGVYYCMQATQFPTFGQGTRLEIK
LD50, indirect cytotoxicity with DM1-conjugated mouse anti-human IgG, 293-GCC#2 cells, WST after 4 days [3]: 2440 pM

B8: mAb 8C2 (antibody, IgG2, V domains shown)
VH: QVQLVESGGGVVQPGRSLRLSCVASGFTFSSYGMHWVRQAPGKGLEWVGAIWYDGSNKYYAASVKGRFTISRDNSKNTLYLQMNSLRAEDTAVFYCARGRSSSYFDYWGQGTLVTVSS
VL: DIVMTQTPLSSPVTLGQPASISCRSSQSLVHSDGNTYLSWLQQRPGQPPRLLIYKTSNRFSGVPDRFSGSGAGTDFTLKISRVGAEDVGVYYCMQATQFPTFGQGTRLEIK
LD50, indirect cytotoxicity with DM1-conjugated mouse anti-human IgG, 293-GCC#2 cells, WST after 4 days [3]: 2040 pM | binding result (TOK107-hIg [2]): binds

B9: mAb Abx-020 (antibody, IgG1, V domains shown)
VH: QVQLVESGGGLVKPGGSLRLSCAASGFTFSDYYMSWIRQAPGKGLEWISYITSSGSTIYYSASVKGRFTISRDNAKNSLYLQMNSLRAEDTAVYYCARDFSGWFGVHFDYWGQGTLVTVSS
VL: DIVMTQTPLSLSVTPGQPASISCKSSQSLLHSDGKTYLYWYLQKPGQPPQLLIYEVSNRFSGVPNRFSGSGSGTDFTLKISRVEAEDVGVYYCMQSIQLTWTFGQGTKVEIK
LD50, indirect cytotoxicity with DM1-conjugated mouse anti-human IgG, 293-GCC#2 cells, WST after 4 days [3]: 569 pM | EC50 (TOK107-hIg [4]): 4.58 nM

B10: mAb Abx-198 (antibody, IgG1, V domains shown)
VH: EVQLLESGGGLVQPGGSLRLSCAASGFTFSSYAMSWVRQAPGKGLDWVSDISGSGGSTYYADSVKGRFTISRDNSKNTLYLQMHSLSAEDTAIYYCAKRRWQGYFDLWGRGTLVTVSS
VL: EIVLTQSPGTLSLSPGERATLSCRARQRVDSRYLAWYQQKPGQAPRLLIYGASSRATGIPDRFSGSGSGTDFTLTISRLEPEDFAVYYCQQYGSSPLTFGGGTKVEIK
LD50, indirect cytotoxicity with DM1-conjugated mouse anti-human IgG, 293-GCC#2 cells, WST after 4 days [3]: > 5400 pM | EC50 (TOK107-hIg [4]): 47.7 nM

B11: mAb Abx-393 (antibody, IgG1, V domains shown)
VH: QVQLQESGPGLVKPSETLSLTCTVSGGSIRHYYWSWIRQPPGKGLEWIGYIYYSGSTNYNLSLKSRVTISRDTSKNQVSLKLSSVTAADTAVYYCAAGMGFDYWGQGTLVTVSS
VL: DIQMTQSPSSLSASIGDRVTITCRASQAIRNDLGWYQLKPGKAPKRLIYSASSLQSGVPSRFSGSGSGTEFTLTISSLQPEDSATYYCLQHNSFPPTFGQGTKVEIK
LD50, indirect cytotoxicity with DM1-conjugated mouse anti-human IgG, 293-GCC#2 cells, WST after 4 days [3]: > 5400 pM | binding result (TOK107-hIg [2]): binds

B12: mAb 10D3 (antibody, V domains shown)
VH: QVQLQQWGAGLLKPSETLSLTCAVFGGSFSGYYWSWIRQPPGKGLEWIGEINHRGNTNDNPSLKSRVTISVDTSKNQFALKLSSVTAADTAVYYCARERGYTYGNFDHWGQGTLVTVSS
VL: EIVLTQSPGTLSLSPGERATLSCRASQSVSSRYLAWYQQKPGQAPRLLIYGASSRATGTPDRFSGSGSGTDFTLTISRLEPEDFAVYFCQQYERSFTFGPGTKVD
LD50, indirect cytotoxicity with DM1-conjugated mouse anti-human IgG, 293-GCC#2 cells, WST after 4 days [3]: 1600 pM | binding result (TOK107-hIg [2]): binds

B13: 5F9-mc-MMAF (antibody, V domains shown)
VH: QVQLQQWGAGLLKPSETLSLTCAVFGGSFSGYYWSWIRQPPGKGLEWIGEINHRGNTNDNPSLKSRVTISVDTSKNQFALKLSSVTAADTAVYYCARERGYTYGNFDHWGQGTLVTVSS
VL: EIVMTQSPATLSVSPGERATLSCRASQSVSRNLAWYQQKPGQAPRLLIYGASTRATGIPARFSGSGSGTEFTLTIGSLQSEDFAVYYCQQYKTWPRTFGQGTNVEIK
modifications: mc-MMAF drug-linker on reduced interchain cysteines of the antibody; positions not given
notes: Antibody drug conjugate of 5F9; average loading about four
LD50, direct cytotoxicity, CT 26 GCC #2.5 cells [7]: > 10 nM | LD50, direct cytotoxicity, CT 26 GCC #32 cells [7]: 0.064 nM | LD50, direct cytotoxicity, HT 29 GCC #2 cells [7]: 3.1 nM | LD50, direct cytotoxicity, HT 29 GCC #5 cells [7]: > 10000 nM | LD50, direct cytotoxicity, HT 29 GCC #18 cells [7]: > 10 µM | LD50, direct cytotoxicity, HT29 GCC#5 cells [7]: > 10 nM | MFI at 0.001 µg/ml [8]: 483 | MFI at 0.004 µg/ml [8]: 776 | MFI at 0.016 µg/ml [8]: 2110 | MFI at 0.063 µg/ml [8]: 5350 | MFI at 0.25 µg/ml [8]: 7400 | MFI at 1 µg/ml [8]: 7580

B14: 5F9-vc-MMAF (antibody, V domains shown)
VH: QVQLQQWGAGLLKPSETLSLTCAVFGGSFSGYYWSWIRQPPGKGLEWIGEINHRGNTNDNPSLKSRVTISVDTSKNQFALKLSSVTAADTAVYYCARERGYTYGNFDHWGQGTLVTVSS
VL: EIVMTQSPATLSVSPGERATLSCRASQSVSRNLAWYQQKPGQAPRLLIYGASTRATGIPARFSGSGSGTEFTLTIGSLQSEDFAVYYCQQYKTWPRTFGQGTNVEIK
modifications: mc-vc-MMAF drug-linker on reduced interchain cysteines of the antibody; positions not given
notes: as for B13
LD50, direct cytotoxicity, CT 26 GCC #2.5 cells [7]: > 10 nM | LD50, direct cytotoxicity, CT 26 GCC #32 cells [7]: 0.004 nM | LD50, direct cytotoxicity, HT 29 GCC #2 cells [7]: 0.127 nM | LD50, direct cytotoxicity, HT 29 GCC #5 cells [7]: 563 nM | LD50, direct cytotoxicity, HT 29 GCC #18 cells [7]: > 10 µM | MFI at 0.001 µg/ml [8]: 440 | MFI at 0.004 µg/ml [8]: 707 | MFI at 0.016 µg/ml [8]: 1500 | MFI at 0.063 µg/ml [8]: 4830 | MFI at 0.25 µg/ml [8]: 7560 | MFI at 1 µg/ml [8]: 7780

B15: 5F9-vc-MMAE (antibody, V domains shown)
VH: QVQLQQWGAGLLKPSETLSLTCAVFGGSFSGYYWSWIRQPPGKGLEWIGEINHRGNTNDNPSLKSRVTISVDTSKNQFALKLSSVTAADTAVYYCARERGYTYGNFDHWGQGTLVTVSS
VL: EIVMTQSPATLSVSPGERATLSCRASQSVSRNLAWYQQKPGQAPRLLIYGASTRATGIPARFSGSGSGTEFTLTIGSLQSEDFAVYYCQQYKTWPRTFGQGTNVEIK
modifications: mc-vc-MMAE drug-linker on reduced interchain cysteines of the antibody; positions not given
notes: Antibody drug conjugate of 5F9
LD50, direct cytotoxicity, CT 26 GCC #2.5 cells [7]: > 500 nM | LD50, direct cytotoxicity, CT 26 GCC #32 cells [7]: 267 nM | LD50, direct cytotoxicity, HT 29 GCC #2 cells [7]: 24.1 nM | LD50, direct cytotoxicity, HT 29 GCC #5 cells [7]: 654 nM | LD50, direct cytotoxicity, HT 29 GCC #18 cells [7]: 0.555 µM | LD50, direct cytotoxicity, HT29 GCC#5 cells [7]: 0.59 nM | MFI at 0.001 µg/ml [8]: 445 | MFI at 0.004 µg/ml [8]: 696 | MFI at 0.016 µg/ml [8]: 1790 | MFI at 0.063 µg/ml [8]: 4850 | MFI at 0.25 µg/ml [8]: 7300 | MFI at 1 µg/ml [8]: 7420

B16: mAb Abx-221 (antibody, V domains shown)
VH: EVQLLESGGGLVQPGGSLRLSCAASGFTFSRYAMNWVRQAPGKGLEWVSGISGSGGSTYYADSVKGRFTISRDNSKNTLYLQMNSLRAEDTAVYYCAKDRDFWSGPFDYWGQGTLVTVSS
VL: EIVMTPSSATLSVSPGERATLSCRASQSVSRSLAWYQQKPGQAPRLLIYGASTRATGIPARFSGSGSGTEFTLTISSLQSEDVAVYYCQQYNNWMCSFGQGTKLEIK
LD50, indirect cytotoxicity with DM1-conjugated mouse anti-human IgG, 293-GCC#2 cells, WST after 4 days [3]: 207 pM | EC50 (TOK107-hIg [4]): 6.55 nM

B17: mAb Abx-229 (antibody, V domains shown)
VH: EVQLLESGGGLVQPGGSLRLSCAASGFTFSRYAMNWVRQAPGKGLEWVSGISGSGGRTYYADSVKGRFTISRDNSKNTLYLQMNSLRAEDTAVYYCAKDRDFWSGPFDYWGQGTLVTVSS
VL: EIVMTPSSATLSVSPGERATLSCRASQSVSRNLAWYQQKPGQAPRLLIYGASTRATGIPARFSGSGSGTEFTLTISSLQSEDFAVYYCHQYSNWMCSFGQGTKLEIK
LD50, indirect cytotoxicity with DM1-conjugated mouse anti-human IgG, 293-GCC#2 cells, WST after 4 days [3]: 78 pM | EC50 (TOK107-hIg [4]): 29.5 nM
